The values that follow come from paper PMC4015189 (Cell, 2014).

One series addresses microtubules. The series can be described thus: single-molecule TIRF microscopy.
The series “light scattering” concerns the molecule itself. The series can be described thus: light scattering.
The series “SEC” deals with the molecule itself. The series is described as follows: SEC.

B1: NuMA-tail II-GFP (domain or fragment, human, UniProt Q14980 1868-2091, looked up)
chain: SALLSLPGYRPTTRSSARRSQAGVSSGAPPGRNSFYMGTCQDEPEQLDDWNRIAELQQRNRVCPPHLKTCYPLESRPSLSLGTITDEEMKTGDPQETLRRASMQPIQIAEGTGITTRQQRKRVSLEPHQGPGTPESKKATSCFPRPMTPRDRHEGRKQSTTEAQKKAAPASTKQADRRQSMAFSILNTPKKLGNSLLRRGASKKALSKASPNTRSGTRRSPRIA
B1 showed a binding lifetime with microtubules of 2.8 ± 0.2 s.

B2: NuMA NTD (domain or fragment, human, UniProt Q14980 1-400, looked up)
chain: MTLHATRGAALLSWVNSLHVADPVEAVLQLQDCSIFIKIIDRIHGTEEGQQILKQPVSERLDFVCSFLQKNRKHPSSPECLVSAQKVLEGSELELAKMTMLLLYHSTMSSKSPRDWEQFEYKIQAELAVILKFVLDHEDGLNLNEDLENFLQKAPVPSTCSSTFPEELSPPSHQAKREIRFLELQKVASSSSGNNFLSGSPASPMGDILQTPQFQMRRLKKQLADERSNRDELELELAENRKLLTEKDAQIAMMQQRIDRLALLNEKQAASPLEPKELEELRDKNESLTMRLHETLKQCQDLKTEKSQMDRKINQLSEENGDLSFKLREFASHLQQLQDALNELTEEHSKATQEWLEKQAQLEKELSAALQDKKCLEEKNEILQGKLSQLEEHLSQLQDN
Take B2: the “stoichiometry N” value in the series “light scattering” turned out to be 2.

B3: EB1-GFP (natural protein, human, UniProt Q15691 1-268, looked up)
chain: MAVNVYSTSVTSDNLSRHDMLAWINESLQLNLTKIEQLCSGAAYCQFMDMLFPGSIALKKVKFQAKLEHEYIQNFKILQAGFKRMGVDKIIPVDKLVKGKFQDNFEFVQWFKKFFDANYDGKDYDPVAARQGQETAVAPSLVAPALNKPKKPLTSSSAAPQRPISTQRTAAAPKAGPGVVRKNPGVGNGDDEAAELMQQVNVLKLTVEDLEKERDFYFGKLRNIELICQENEGENDPVLQRIVDILYATDEGFVIPDEGGPQEEQEEY
Take B3: the binding lifetime with microtubules stood at 1.2 ± 0.2 s.

B4: NuMA-bonsai-tail II-GFP (other, human, UniProt Q14980 1-400, looked up)
chain: MTLHATRGAALLSWVNSLHVADPVEAVLQLQDCSIFIKIIDRIHGTEEGQQILKQPVSERLDFVCSFLQKNRKHPSSPECLVSAQKVLEGSELELAKMTMLLLYHSTMSSKSPRDWEQFEYKIQAELAVILKFVLDHEDGLNLNEDLENFLQKAPVPSTCSSTFPEELSPPSHQAKREIRFLELQKVASSSSGNNFLSGSPASPMGDILQTPQFQMRRLKKQLADERSNRDELELELAENRKLLTEKDAQIAMMQQRIDRLALLNEKQAASPLEPKELEELRDKNESLTMRLHETLKQCQDLKTEKSQMDRKINQLSEENGDLSFKLREFASHLQQLQDALNELTEEHSKATQEWLEKQAQLEKELSAALQDKKCLEEKNEILQGKLSQLEEHLSQLQDNSALLSLPGYRPTTRSSARRSQAGVSSGAPPGRNSFYMGTCQDEPEQLDDWNRIAELQQRNRVCPPHLKTCYPLESRPSLSLGTITDEEMKTGDPQETLRRASMQPIQIAEGTGITTRQQRKRVSLEPHQGPGTPESKKATSCFPRPMTPRDRHEGRKQSTTEAQKKAAPASTKQADRRQSMAFSILNTPKKLGNSLLRRGASKKALSKASPNTRSGTRRSPRIA
For B4, the “stoichiometry N” value in “SEC” amounted to 2. The binding lifetime with microtubules was determined as 3.6 ± 0.2 s.
